According to patent US10005846 (LIFEARC, dated 2018):

B1: hAB004 (hAB001AE) humanised AB1 antibody (antibody, V domains shown)
VH: EVQLLESGGGLVQPGGSLRLSCAASGFTFSSSAMSWVRQAPGKGLEWVSTISVGGGKTYYPDSVKGRFTISRDNSKNTLYLQMNSLRAEDTAVYYCAKLISLYWGQGTLVTVSS
VL: EIVLTQSPSSLSASVGDRVTITCKASQDINSYLTWYQQKPGKAPKLLIYRTNRLFDGVPSRFSGSGSGTDFFFTISSLQPEDFGTYYCLQYDDFPYTFGGGTKLEIK
notes: they were captured by anti-human IgG1 (Fc); also called Heavy Chain version RHA with Light Chain version RKE
B2: hBB001BB humanised BB7 antibody (antibody, V domains shown)
VH: EVQLLESGGGLVQPGGSLRLSCAASGIIFSSSAMSWVRQAPGKGLEWVATISSGGRSTYYPDSVKGRFTVSRDSSKNTLYLQMNSLRAEDTAVYYCAKLISPYWGQGTLVTVSS
VL: DIKMTQSPSSLSASVGDRVTITCKASQDINSYLTWFQQKPGKAPKTLIYLTNRLMDGVPSRFSGSGSGQEFLLTISSLQPEDFATYYCLQYVDFPYTFGQGTKVEIK
notes: BB is read as heavy chain hBB001HB (BB7_RHB) with kappa chain hBB001KB (BB7_RKB)
B3: hBB001AA humanised BB7 antibody (antibody, V domains shown)
VH: EVQLLESGGGLVQPGGSLRLSCAASGFTFSSSAMSWVRQAPGKGLEWVSTISSGGRSTYYPDSVKGRFTISRDNSKNTLYLQMNSLRAEDTAVYYCAKLISPYWGQGTLVTVSS
VL: DIQMTQSPSSLSASVGDRVTITCKASQDINSYLTWFQQKPGKAPKSLIYLTNRLMDGVPSRFSGSGSGTDFFLTISSLQPEDFATYYCLQYVDFPYTFGQGTKVEIK
notes: captured by anti-human IgG1 (Fc); also called hBB01AA

What was measured:
cynomolgus monkey TG2 [1] = biological target: T1, cynomolgus monkey TG2 (cynomolgus monkey, UniProt A0A2K5VXI8 1-687); experiment: SPR (Biacore T200), antibody captured on anti-human IgG1 Fc chip, TG2 injected; calcium condition not marked in the row
T1 construct: Bought recombinant protein; also called cynomogulus monkey TG2; cyano TG2
T1 sequence: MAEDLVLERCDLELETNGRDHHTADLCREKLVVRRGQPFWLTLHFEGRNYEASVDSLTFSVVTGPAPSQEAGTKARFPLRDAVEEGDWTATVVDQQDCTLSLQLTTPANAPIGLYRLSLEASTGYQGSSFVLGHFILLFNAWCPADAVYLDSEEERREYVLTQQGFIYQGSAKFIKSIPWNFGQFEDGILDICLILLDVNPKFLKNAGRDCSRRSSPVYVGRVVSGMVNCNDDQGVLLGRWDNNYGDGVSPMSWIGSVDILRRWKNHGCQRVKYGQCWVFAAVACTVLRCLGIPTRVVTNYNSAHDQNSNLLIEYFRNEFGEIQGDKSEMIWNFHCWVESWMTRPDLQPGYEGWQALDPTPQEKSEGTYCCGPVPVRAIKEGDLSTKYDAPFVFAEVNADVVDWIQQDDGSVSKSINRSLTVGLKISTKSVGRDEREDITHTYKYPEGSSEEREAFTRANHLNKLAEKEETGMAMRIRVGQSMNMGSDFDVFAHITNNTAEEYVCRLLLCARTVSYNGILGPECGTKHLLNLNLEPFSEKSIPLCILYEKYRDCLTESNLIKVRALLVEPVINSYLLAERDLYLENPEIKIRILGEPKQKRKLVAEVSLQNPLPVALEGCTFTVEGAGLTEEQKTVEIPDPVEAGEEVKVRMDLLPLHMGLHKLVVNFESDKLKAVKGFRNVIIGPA
Experimental: (§1) Recombinant cynomolgus monkey TG2 was obtained from Trenzyme. Surface plasmon resonance (SPR) was measured on a Biacore T200 instrument (GE Healthcare). CM5 chips (GE Healthcare cat. no.: BR-1006-68) were coated with monoclonal mouse anti-human IgG1 (Fc) (MAH) antibody (GE Healthcare cat. no.: BR-1008-39) by amine-coupling as described in the manufacturers instructions. HBS-EP+ buffer (0.01 M HEPES, 0.15 M NaCl, 3 mM EDTA, 0.05% v/v Surfactant P20) and HBS-P+ buffer (0.01 M HEPES, 0.15 M NaCl, 0.05% Surfactant P20) were purchased from GE Healthcare as 10× stocks (cat. nos.: BR-1006-69 and BR-1006-71). Calcium Chloride solution was obtained from Sigma Aldrich (cat. no.:21115).
(§2) The method employed to determine the affinity of the anti-TG2 antibodies involved the capture of the chimeric or humanised antibodies on a MAH coated CM5 chip, followed by the injection of a series of TG2 samples in running buffer. The running buffer was 1×HBS-P+ containing 1 mM CaCl_2, or 1×HBS-EP+ for calcium-free experiments. Antibody capture was carried out for a contact time of 120 seconds at a flow rate of 10 μl/min resulting in the capture of approximately 40-80 RU. TG2 was injected over the immobilised antibody at concentrations ranging from 25 nM to 400 nM with a contact time up to 600 seconds at a flow rate of 30 μl/min. Dissociation of TG2 was typically measured for up to 5400 seconds (1.5 hours). Regeneration of the chip was then performed using 3 M MgCl_2, for a contact time of 60 seconds at a flow rate of […], followed by a 300 s stabilisation period before the next sample. For each of human and cynomolgus monkey TG2, at least 5 injections at a variety of concentrations were performed in at least two separate experiments.
(§3) Kinetic data were exported from the Biacore T200 Evaluation Software and analysed using GraphPad Prism, where the association phases and dissociation phases were analysed separately using a one phase association model and one-phase exponential decay model respectively. Association rates ($kon$) were calculated for each curve individually, and dissociation rates ($koff$) values from the long dissociation phase data collected. Where $koff$ values were calculated to be $<1\times10^-5$ s^-1, values were set at 1×10^-5 for analysis, as rates slower than this could not be estimated accurately.

[2] = biological target: T2, human transglutaminase type 2 (TG2) (human, UniProt P21980 1-687); experiment: as above
T2 construct: Recombinant full-length human TG2 (Zedira; cat; T002 in the Biacore work); Also used here for the endogenous TG2 of HepG2 lysate and HK-2 cells; also called hTG2; rhTG2
T2 sequence: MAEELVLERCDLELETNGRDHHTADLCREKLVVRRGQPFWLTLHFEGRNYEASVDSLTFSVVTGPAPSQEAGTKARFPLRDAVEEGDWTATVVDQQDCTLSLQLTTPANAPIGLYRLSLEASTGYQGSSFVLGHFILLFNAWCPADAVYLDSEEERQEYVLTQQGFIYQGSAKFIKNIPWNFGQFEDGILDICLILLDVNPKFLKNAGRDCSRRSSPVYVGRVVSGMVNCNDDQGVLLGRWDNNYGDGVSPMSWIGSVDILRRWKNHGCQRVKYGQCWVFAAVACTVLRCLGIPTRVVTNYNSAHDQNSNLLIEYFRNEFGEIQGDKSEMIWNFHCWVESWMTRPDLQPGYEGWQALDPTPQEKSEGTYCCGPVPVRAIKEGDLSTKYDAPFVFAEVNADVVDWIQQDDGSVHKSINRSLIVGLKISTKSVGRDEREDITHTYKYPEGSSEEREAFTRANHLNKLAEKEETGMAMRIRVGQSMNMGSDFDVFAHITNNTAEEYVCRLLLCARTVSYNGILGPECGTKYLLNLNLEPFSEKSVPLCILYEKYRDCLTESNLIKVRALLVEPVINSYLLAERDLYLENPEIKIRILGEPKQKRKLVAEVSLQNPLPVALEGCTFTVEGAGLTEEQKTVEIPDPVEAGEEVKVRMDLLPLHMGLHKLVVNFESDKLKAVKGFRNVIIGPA
Experimental: as §1, §2, §3

cynomolgus monkey TG2 [3] = biological target: T1, cynomolgus monkey TG2; experiment: cell-based or functional assay
[4] = biological target: T2, human transglutaminase type 2 (TG2); experiment: ELISA on immobilised human TG2; r2 0.9794; EC50 95% confidence range 0.01199 to 0.03342 [panel B]
Experimental: (§4) Antibody binding to human and cynomolgus monkey TG2 was determined in an ELISA assay. Clear polystyrene "Maxisorp" 96-well plates (Nunc) were coated with 50 ng purified human or cynomogulus monkey TG2 in 50 µl 0.05 M carbonate-bicarbonate buffer pH 9.6 at 4° C. overnight. Control wells were coated with 50 µl 100 µg/ml bovine serum albumin (BSA). Plates were washed 3× with 300 µl phosphate-buffered saline pH7.4 (PBS) containing 0.1% Tween 20 (PBST) and blocked with 300 µl 3% w/v Marvel skimmed milk in PBS for 1 hour at room temperature. After 3× wash with PBST, 50 µl protein-A purified chimeric or humanised anti-TG2 antibodies or human IgG1 kappa […] control antibody or CUB7402 (Abcam) were serially diluted 4-fold from a top concentration of 50 nM in PBS, and added to the plate in duplicate. […] After 3× washes with PBST, the plates were developed with 50 µl TMB substrate (Sigma) for 5 min at room temperature before stopping the reaction with 25 µl 0.5M H2SO4 and reading absorbance at 450 nm in a microtiter plate reader (BioTek EL808). Dose response curves were analysed and EC50 values and other statistical parameters determined using a 4-parameter logistical fit of the data (GraphPad Prism).

[5] = biological target: T2, human transglutaminase type 2 (TG2); experiment: cell-based or functional assay
cynomolgus monkey TG2 [6] = biological target: T1, cynomolgus monkey TG2; experiment: ELISA on immobilised cynomolgus monkey TG2; r2 0.9766; EC50 95% confidence range 0.04047 to 0.09246 [panel B]
Experimental: as §4

cynomolgus monkey TG2 [7] = biological target: T1, cynomolgus monkey TG2; experiment: ELISA on immobilised cynomolgus monkey TG2; r2 0.9361; EC50 95% confidence range 0.04198 to 0.1296 [panel A]
Experimental: as §4

[8] = biological target: T2, human transglutaminase type 2 (TG2); experiment: cell-based or functional assay; remark: listed apart in the source
[9] = biological target: T2, human transglutaminase type 2 (TG2); experiment: cell-based or functional assay; remark: listed apart in the source
[10] = biological target: T2, human transglutaminase type 2 (TG2); experiment: ELISA on immobilised human TG2; r2 0.9771; EC50 95% confidence range 0.04636 to 0.08491 [panel A]
Experimental: as §4

[11] = biological target: T2, human transglutaminase type 2 (TG2); experiment: ELISA on immobilised human TG2; r2 0.9792; EC50 95% confidence range ND [panel A]
Experimental: as §4

cynomolgus monkey TG2 [12] = biological target: T1, cynomolgus monkey TG2; experiment: ELISA on immobilised cynomolgus monkey TG2; r2 0.9329; EC50 95% confidence range 0.03522 to 0.08934 [panel A]
Experimental: as §4

Binder	Kd (cynomolgus monkey TG2 [1]) [pM]	koff (cynomolgus monkey TG2 [1]) [s⁻¹]	kon (cynomolgus monkey TG2 [1]) [M⁻¹ s⁻¹]	Kd [2] [pM]	koff [2] [s⁻¹]	kon [2] [M⁻¹ s⁻¹]	IC50 of enzymatic inhibition, dansylated lysine incorporation into N,N-dimethylated casein [panel B] (cynomolgus monkey TG2 [3]) [pM]	EC50 [4] [pM]	IC50 of enzymatic inhibition, dansylated lysine incorporation into N,N-dimethylated casein [continued), panel D] [5] [pM]	EC50 (cynomolgus monkey TG2 [6]) [pM]	EC50 (cynomolgus monkey TG2 [7]) [pM]	IC50 of enzymatic inhibition, dansylated lysine incorporation into N,N-dimethylated casein [panel B] [8] [pM]	IC50, extracellular TG activity of HK-2 cells, biotin cadaverine incorporation into fibronectin [9] [pM]	EC50 [10] [pM]	EC50 [11] [pM]	EC50 (cynomolgus monkey TG2 [12]) [pM]	IC50 of enzymatic inhibition, dansylated lysine incorporation into N,N-dimethylated casein [panel A] (cynomolgus monkey TG2 [3]) [pM]	IC50 of enzymatic inhibition, dansylated lysine incorporation into N,N-dimethylated casein [panel A] [8] [pM]
B1	110	1.8e-05	160000	120	2.4e-05	200000	7850	20	3850	61.2	–	–	–	–	–	–	–	–
B2	140	3.7e-05	270000	< 40	< 1e-05	240000	–	–	–	–	73.8	985	4900	62.7	–	–	–	–
B3	< 30	< 1e-05	300000	–	–	270000	–	–	–	–	–	–	19800	–	~47.4	56.1	8500	5990
